Test results taken from publication PMC10015101.

Key:
[1] = molecular target: Rf1 soluble spike ectodomain, stabilised (2P, GSAS linker, T4 fibritin trimerization motif) (bat sarbecovirus Rf1 | bacteriophage T4) (UniProt Q0QDZ0); test: SEC
[2] = molecular target: SARS-CoV-1 soluble spike ectodomain, stabilised (2P, GSAS linker, T4 fibritin trimerization motif) (SARS-CoV-1 | bacteriophage T4) (UniProt P59594); test: SEC

For “Rf1 soluble spike ectodomain, stabilised (2P, GSAS linker, T4 fibritin trimerization motif) (from UniProt Q0QDZ0 1-1176) (domain or fragment)”, the stoichiometry N [1] was 3.

“SARS-CoV-1 soluble spike ectodomain, stabilised (2P, GSAS linker, T4 fibritin trimerization motif) (from UniProt P59594 14-1190) (domain or fragment)” gave a stoichiometry N [2] of 3.
